{"source": "patent US9403908B2", "about": "“Method for altering hematopoietic progenitor cell adhesion, differentiation, and migration” (The Regents of the University of California, priority 2003, dated 2016)", "molecules": {"B1": {"name": "rsVCAM: recombinant soluble VCAM, a competitive inhibitor of integrin α4β1 function (protein)", "chain": "FKIETTPESRYLAQIGDSVSLTCSTTGCESPFFSWRTQIDSPLNGKVTNEGTTSTLTMNPVSFGNEHSYLCTATCESRKLEKGIQVEIYSFPKDPEIHLSGPLEAGKPITVKCSVADVYPFDRLEIDLLKGDHLMKSQEFLEDADRKSLETKSLEVTFTPVIEDIGKVLVCRAKLHIDEMDSVPTVRQAVKELQVYISPKNTVISVNPSTKLQEGGSVTMTCSSEGLPAPEIFWSKKLDNGNLQHLSGNATLTLIAMRMEDSGIYVCEGVNLIGKNRKEVELIVQEKPFTVEISPGPRIAAQIGDSVMLTCSVMGCESPSFSWRTQIDSPLSGKVRSEGTNSTLTLSPVSFENEHSYLCTVTCGHKKLEKGIQVELYSFPRDPEIEMSGGLVNGSSVTVSCKVPSVYPLDRLEIELLKGETILENIEFLEDTDMKSLENKSLEMTFIPTIEDTGKALVCQAKLHIDDMEFEPKQRQSTQTLYVNVAPRDTTVLVSPSSILEEGSSVNMTCLSQGFPAPKILWSRQLPNGELQPLSENATLTLISTKMEDSGVYLCEGINQAGRSRKEVELIIQVTPKDIKLTAFPSESVKEGDTVIISCTCGNVPETWIILKKKAETGDTVLKSIDGAYTIRKAQLKDAGVYECESKNKVGSQLRSLTLDVQGRENNKDYFSPE"}}, "key": {"[1]": {"test_system": "bFGF or VEGF induced angiogenesis in Matrigel", "assay": "Murine Matrigel angiogenesis assay (bFGF or VEGF)", "assay_type": "in vivo, mouse", "conditions": "peptide antagonist; 50 μM in bFGF matrigel, nude mice (FIG. 19G)", "procedure": "(B, C) Adhesion of endothelial cells to plastic plates coated with 5 μg/ml CS-1 fibronectin, in the presence of medium, anti-α4β1 (HP1/2) or control antibodies (P1F6). (D) Cryosections from bFGF stimulated, saline or antibody-treated CAMs were immunostained to detect blood vessel expression of von Willebrand Factor. (E) Angiogenesis was initiated in FVB/N mice by corneal transplantation of polymerized pellets containing 400 ng/ml of VEGF. Animals (n=5) were treated on day 0 and day 3 with anti-α4β1 (PS/2) or control IgG (cIgG). Fifteen minutes prior to sacrifice on day 5, mice were injected intravenously with endothelial specific lectin, Bandeira simplifolia-FITC and tissues were cryopreserved. Angiogenic response to VEGF was quantified as the percent green fluorescent area visible under high power magnification (100×). […] Matrigel plugs were homogenized in RIPA buffer and fluorescence intensity determined.\n[…] Microvessel density was quantified in 10 randomly selected 200× microscopic fields for each plug in each treatment group (n=8). […] Angiogenic response to VEGF was quantified as the percent green fluorescent area visible at 100× magnification. […] Tumor dimensions were determined every other day and tumor mass was determined after four weeks of treatment. […] Statistical significance was determined using Student's t-test."}, "[2]": {"test_system": "endothelial progenitor cells (EPCs)", "assay": "Adhesion of DiI-labeled EPCs to endothelial (HUVEC) monolayers", "assay_type": "cell-based, human", "conditions": "DiI-labeled EPCs on proliferating HUVEC monolayers; FIG. 17D", "procedure": "(A-B) Adhesion of purified EPCs on plastic plates coated with (A) 5 μg/ml CS-1 fibronectin or (B) recombinant soluble VCAM in the presence of medium, anti-α4β1 (HP1/2) or control antibodies (P1F6). (C) Adhesion of DiI-labeled purified EPCs to HUVEC monolayers VCAM in the presence of medium, anti-α4β1 (HP1/2) or control antibodies (P1F6). Cells were quantified by counting adherent red fluorescent cells per 200× microscopic field. (D) Adhesion of DiI-labeled purified EPCs to HUVEC monolayers in the presence of medium, rsVCAM or control protein. Statistical significance was determined using Student's t-test.\nTo determine whether EPCs can attach to proliferating vascular endothelium that has been stimulated by angiogenic growth factors, we plated EPCs labeled with DiI-acetylated LDL onto proliferating endothelial monolayers. EPCs bound strongly to endothelium in a α4β1 dependent manner (FIG. 17C) and that rsVCAM blocked EPC attachment to endothelial monolayers (FIG. 17D). […] Thus, α4β1 mediates the attachment of EPCs to VCAM on vascular endothelium. […]"}, "human CD34+ stem cells": {"test_system": "human CD34+ stem cells", "assay": "CD34+ stem cell adhesion to HUVEC monolayers", "assay_type": "cell-based", "conditions": "60 minutes, 25 μg/ml HP2/1 or P1F6 (FIG. 34d-e)", "procedure": "Adhesion assays were performed on plastic 48 well plates coated with 5 μg/ml of recombinant H120 CS-1 fibronectin (from Martin J. Humphries, University of Birmingham, UK) as described (Kim et al. (2000) Am. J. Pathol. 156, 1345-1362). Stem cells were incubated on coated plates for 30 minutes in the presence of 25 μg/ml anti-α4β1_(HP2/1) or anti-αvβ5 (P1F6, from Dr. David Cheresh, the Scripps Research Institute). CMTMR labeled stem cells were incubated in HEPES buffered serum free culture medium in the presence of 25 μg/ml HP2/1 or P1F6 on HUVEC monolayers for 60 minutes at 37° C. Unbound cells were removed by washing gently with PBS. Cells were fixed in 3.7% parafomaldeyde. Representative fields were photographed at 200× and the number of cells adhering per field was quantified in five representative fields per treatment condition."}}}
{"molecule": "EILDV", "values": [{"measurement": "neovascularization in Matrigel model", "setting": "[1]", "result": "blocked"}]}
{"molecule": "B1", "values": [{"measurement": "EPC attachment to endothelial monolayers", "setting": "[2]", "result": "blocked"}, {"measurement": "stem cell adhesion to endothelial cell (EC) monolayers", "setting": "human CD34+ stem cells", "result": "blocked"}]}
